Assay [1] concerns the target T1, recombinant human IL-1α (human, UniProt P01583 113-271).
T1 sequence: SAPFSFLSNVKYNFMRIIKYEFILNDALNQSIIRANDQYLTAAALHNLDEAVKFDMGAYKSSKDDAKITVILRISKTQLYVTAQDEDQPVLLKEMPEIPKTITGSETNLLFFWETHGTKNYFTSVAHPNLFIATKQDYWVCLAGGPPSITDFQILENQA
Kind of assay: cell-based or functional assay.

Assay [2] addresses T2, cynomolgus IL-1α (cynomolgus, UniProt P79340 113-271, limits assumed).
T2 sequence (looked up): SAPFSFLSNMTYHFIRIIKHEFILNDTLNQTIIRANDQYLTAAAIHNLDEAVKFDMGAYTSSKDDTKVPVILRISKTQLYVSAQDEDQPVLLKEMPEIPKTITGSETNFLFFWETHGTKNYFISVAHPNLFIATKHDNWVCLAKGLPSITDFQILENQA
The assay can be described thus: cell-based or functional assay.

In assay [3] the target is T1, recombinant human IL-1α. Kind of assay: SPR (BIACORE), antibody captured, IL-1α in solution.
Assay [4] deals with T2, cynomolgus IL-1α. The description is as above.
Assay [5] concerns the target T1, recombinant human IL-1α. Kind of assay: ELISA, antibody captured by anti-human Fc, biotinylated human IL-1α titrated. Here is the method: To determine if anti-IL-1α antibodies bind to human IL-1α, ELISA plates (Nunc, MaxiSorp, Rochester, N.Y.) were incubated overnight at 4° C. with anti-human Fc antibody diluted in Pierce Coat buffer at 2 μg/ml (Jackson Immunoresearch, West Grove, Pa.). Plates were washed five times in washing buffer (PBS containing 0.05% Tween 20), and blocked for 1 hour at 25° C. with 200 μl per well superblock blocking buffer (Thermo scientific, #37515). Blocking buffer was removed by tapping plates, and […] of each antibody in PBS containing 10% superblock and 0.5% Tween-20 was added to the wells at 100 μl per well and incubated at 25° C. for 1 hour. The wells were washed five times in 1× PBST, and 1 mg/ml biotinylated antigen was titrated at 1:6 serial dilutions (for a range of mg to pg in PBS containing 10% superblock, 0.05% Tween 20). Each dilution of antigen was then added to the plates and incubated for 1 hour at 25° C. The wells were washed five times in 1× PBST and incubated for 1 hour at 25° C. with polyHRP streptavidin (KPL #474-3000, Gaithersburg, Md.). The wells were washed five times in 1× PBST, and 100 μl of ULTRA-TMB ELISA (Pierce, Rockford, Ill.) were added per well. Following color development, the reaction was stopped with 1N HCL and absorbance at 450 nm was measured. The half-maximal effective concentration (EC₅₀) values are shown in Table 9, and the numerical value indicates binding of anti-IL-1α antibodies to human IL-1α.
A general note: ELISA stands for enzyme-linked immunosorbent assay.

The text below walks through data of patent US20110165063A1 (published 2011).

B1: h3D12.r16 (antibody, V domains shown)
VH: EVQLVQSGAEVKKPGASVKVSCKASGYTFKYYGMNWVRQAPGQGLERMGWINTYTGQSTYADDFKGRVTFTLDTSTSTAYMELSSLRSEDTAVYYCARDIYYYGSDFAMDYWGQGTTVTVSS
VL: DIQMTQSPSSLSASVGDRVTITCRASQDISNMLNWYQQKPGKAPKLLIYYTSRLKPGVPSRFSGSGSGTDYTFTISSLQPEDIATYFCQQGKTAPYTFGQGTKLEIK
The term Kd denotes the concentration at which binding is half-saturated. In general, koff refers to a measure of how fast the partners let go of each other. Broadly, the kon is a measure of how fast the partners come together. Broadly, the EC50 is the concentration giving half of the maximal effect. Turning to B1, the “IC50 for Antibody (PM), MRC-5 bioassay (IL-1α-stimulated production of IL-8)” value (“IC50 for Antibody (PM), MRC-5 bioassay” for short) in assay [1] turned out to be 0.6 pM. The “IC50 for Antibody (PM), MRC-5 bioassay” value in assay [2] was determined as 0.8 pM. Moreover, in assay [3], the Kd came out at 0.0308 nM, the koff is 2.77e-05 s⁻¹ and the kon was 900000 M⁻¹ s⁻¹. For the same molecule, in assay [4], the Kd came to 0.0149 nM, the koff came out at 1.33e-05 s⁻¹ and the kon came to 901000 M⁻¹ s⁻¹. Also, the EC50 in assay [5] came out at 0.072 nM.

B2: h3D12-362-10/372-15 (antibody, V domains shown)
VH: EVQLVQSGAEVKKPGVSVKVSCKASGYTFTTYGMHWVRQAPGQGLEWMGWINTYTGESTYADDFQGRVTFTLDTSTSTAYMELSSLRSEDTAVYFCARGIYYYGSSYAMNYWGQGTTVTVSS
VL: DIQMTQSPSSLSASVGDRVTITCRASQDISNMLNWYQQKPGKTPKLLIYYTSRLYPGVPSRFSGSGSGTDYTFTISSLQPEDIATYFCQQGKTLPYAFGQGTKLEIK
As for B2, the “IC50 for Antibody (PM), MRC-5 bioassay” value stood at 6 pM in assay [1] and 12.6 pM in assay [2]. For the same molecule, the figures for the Kd in assay [3] and in assay [4] were 0.115 nM and 0.0578 nM, respectively. The results for the koff in assay [3] and in assay [4] were 4.1e-05 s⁻¹ and 2.25e-05 s⁻¹, respectively. Also, the kon is 355000 M⁻¹ s⁻¹ in assay [3] and 389000 M⁻¹ s⁻¹ in assay [4]. Besides, the EC50 in assay [5] came to 0.007 nM.

B3: h3D12.r10 (antibody, V domains shown)
VH: EIQLVQSGAEVKKPGASVKVSCKASGYTFAHYGMNWVRQAPGQGLEWMGWINTYTGQSTYADDFKGRFTFTLDTSTSTAYMELSSLRSEDTAVYYCARGIYYFGSNYAMDYWGQGTTVTVSS
VL: DIQMTQSPSSLSASVGDRVTITCRASQDISNMLNWYQQKPGKTPKLLIYYTSRLRSGVPSRFSGSGSGTDYTFTISSLQPEDIATYFCQQGKKPPYTFGQGTKLEIK
B3: the “IC50 for Antibody (PM), MRC-5 bioassay” value in assay [1] was 0.6 pM. Further, in assay [2], the “IC50 for Antibody (PM), MRC-5 bioassay” value came out at 0.98 pM. In assay [3], the Kd came to 0.0324 nM, the koff was 3.75e-05 s⁻¹ and the kon is 1.16e+06 M⁻¹ s⁻¹. In assay [4], this molecule gave a Kd of 0.00894 nM, a koff of 1.2e-05 s⁻¹ and a kon of 1.37e+06 M⁻¹ s⁻¹. Besides, the EC50 in assay [5] is 0.0692 nM.

B4: h3D12.8 (antibody, V domains shown)
VH: EIQLVQSGSELKKPGASVKVSCKASGYTFTNYGMNWVRQAPGQDLERMAWINTYTGESTYADDFKGRFVFSLDTSVSTAYLQISSLKAEDTAVYFCARGIYYYGSSYAMDYWGQGTTVTVSS
VL: DIQMTQSPSSLSASVGDRVTITCRASQDISNCLNWYQQKPGKTPKLLIYYTSRLHSGVPSRFSGSGSGTDYTFTISSLQPEDIATYFCQQGKTLPYAFGQGTKLEIK
notes: also called humanized 3D12 antibody h3D12.8; VH H3D12VH.1A / VL H3D12VK.1C
Consider B4, for which, in assay [1], the “IC50 for Antibody (PM), MRC-5 bioassay” value stood at 1950 pM. In addition, in assay [3], the Kd came out at 1.35 nM, the koff is 0.00274 s⁻¹ and the kon came out at 2.04e+06 M⁻¹ s⁻¹. In addition, in assay [5], the EC50 came out at 0.028 nM.

B5: h3D12.16 (antibody, V domains shown)
VH: EIQLVQSGAEVKKPGASVKVSCKASGYTFTNYGMNWVRQAPGQDLERMAWINTYTGESTYADDFKGRFTFTLDTSTSTAYMELSSLRSEDTAVYFCARGIYYYGSSYAMDYWGQGTTVTVSS
VL: DIQMTQSPSSLSASVGDRVTITCRASQDISNCLNWYQQKPGKTPKLLIYYTSRLHSGVPSRFSGSGSGTDYTFTISSLQPEDIATYFCQQGKTLPYAFGQGTKLEIK
notes: also called humanized 3D12 antibody h3D12.16; VH H3D12VH.2A / VL H3D12VK.1C
Consider B5, for which, in assay [1], the “IC50 for Antibody (PM), MRC-5 bioassay” value is 1360 pM. In assay [3], the Kd came out at 2.09 nM, the off-rate constant (koff) was found to be 0.00253 s⁻¹ and the kon is 1.21e+06 M⁻¹ s⁻¹. The EC50 in assay [5] is 0.01 nM.

B6: h3D12.r37 (antibody, V domains shown)
VH: EIQLVQSGAEVKKPGASVKVSCKASGYTFKYYGMNWVRQAPGQGLERMGWINTYTGESRYADDFKGRVTFTLDTSTSTAYMELSSLRSEDTAVYYCARDIYYFGSDYAMDYWGQGTTVTVSS
VL: DIQMTQSPSSLSASVGDRVTITCRASQDISNRLNWYQQKPGKAPKLLIYYASRLKPGVPSRFSGSGSGTDYTFTISSLQPEDIATYFCQQGNTPPYTFGQGTKLEIK
As to B6, the “IC50 for Antibody (PM), MRC-5 bioassay” value in assay [1] is 1.4 pM. The “IC50 for Antibody (PM), MRC-5 bioassay” value in assay [2] is 0.6 pM. In assay [3], the Kd was found to be 0.0281 nM, the koff came out at 2.54e-05 s⁻¹ and the kon was 896000 M⁻¹ s⁻¹. In assay [4], this molecule registered a Kd of 0.0394 nM, a koff of 3.82e-05 s⁻¹ and a kon of 970000 M⁻¹ s⁻¹. Further, the EC50 in assay [5] was found to be 0.114 nM.

B7: murine anti-human IL-1α monoclonal antibody 3D12 (antibody, V domains shown)
VH: QIQLVQSGPELKKPGETVKISCKASGYTFRNYGMNWVKQAPGKDLKRMAWINTYTGESTYADDFKGRFAFSLETSASTAYLQINNLKNEDTATYFCARGIYYYGSSYAMDYWGQGTSVTVSS
VL: IQMTQTTSSLSASLGDRVTISCRASQDISNCLNWYQQKPDGTVKLLIYYTSRLHSGVPSRFSGSGSGTDYSLTISNLEQEDIATYFCQQGKTLPYAFGGGTKLEINR
B7: the “IC50 for Antibody (PM), MRC-5 bioassay” value in assay [1] is 1880 pM; in assay [2] it was 72.3 pM.
